The data set in a line: yeast display, Sf9 membrane polyspecificity reagent, FACS + sequencing; frameworks hold sequencing errors. The gist of the method: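 After 36–48 hours of galactose induction, yeast (Saccharomyces cerevisiae BJ5465) displaying a synthetic nanobody library were stained at 4 °C for 1 hour with 10% biotinylated, detergent-solubilized Sf9 membrane reagent. Streptavidin microbeads enriched the stained cells before FACS sorting into low and high (top ~1%) gates on anti-HA and streptavidin fluorescence. Each clone's polyreactivity label reflects its gate of origin.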
For “QVQLVESGGGLVQAGGSLRLSCAASGFIFYYYAMGWYRPAPGKERELVAAISVRGGRTYYADSVKGRFTISRDNAKNTVYLQMNSLKPEDTAVYYCAADLYNRGRGSSQSYRTGYDYWGQGTQVTVSS”, the “polyreactivity (PSR sort gate)” value is reported as “high polyreactivity”.

For the sequence “QVQLVESVGGLVQAGGSLRLSCAASGRIFYTYAMGWYRPAPGKERELVAAISSRTGSTYYADSVKGRFTISRDNAKNTVYLQMNSLKPEDTAVYYCNAYRLRYGYDYWGQGTQVTVSS”, the “polyreactivity (PSR sort gate)” value is listed as “high polyreactivity”. Under “QVQLVESGGGLVQAGGILRLSCAASGRTFYINGMGWYRQAPGKEREFVASITWRGGRTYYADSVKGRFTISRDNAKNTVYLQMNSLKPEDTAVYYCIAVGLGGRAPSRWYTHYYCGQGTQVTVSS” stands “high polyreactivity”; under “QVQLVESGRGLVQAGGSLRLSGAASGITQDDYDMGWSRQAPGKQRELVAAITSGGSTNYAHSVKGRFTNSRDNATNTVYLQMNSLKPEDTAVYYCAADTARTRIFDYWGQGTQVTVSS”, “low polyreactivity”. Consider “QVQLVESGGGLVQAGGSLRLSCAASGSIFSRNAMGWYRQAPGKEREFVAAISWSGGRTYYADSVKGRFTISRDNAKNTVYLQMNSLKPEDTAVYYCSKGYSYHWYHVTFYSWGQGTQVTVSS”, for which the “polyreactivity (PSR sort gate)” value is “high polyreactivity”. For the sequence “QVQLVESGGGLVQAGGSLRLSSAASGIIFRVYTMGWYLQAPGKERELVAKISLGGARTYYADSVKGRFTISRDNAKNTVYLQMNSLKPEDTAVYYCNARSRWTAKFDYWGQGTQVTVSS”, the “polyreactivity (PSR sort gate)” value is recorded as “high polyreactivity”.

Consider “QVQLVESGGGLVQAGGSLRLSCAASGFTFDWYAMGWYRPAPGKERELVAAISSGGNTKYADSVKGRFTISRDNAKNTVYLQMNSLKPEDTAVYYCAARLYYSLSYYYWGQGTQVTVAS”, for which the “polyreactivity (PSR sort gate)” value is “high polyreactivity”. Consider “QVQLVESGGGLVQAGGSLRLSCAASGITFIRNGMGWYRQAPGKERELVAAISYTGARTYYADSVKGRFTISRDNAKNTVYLQMNSLKPEDNAVYYCAAEVRTRYLYSFRWYDYWGEGTQVTVSS”, for which the “polyreactivity (PSR sort gate)” value is “low polyreactivity”. Regarding “QVQLVESGGGLVQAGGSLRLSCAASGRILGKYAMGWYRQAAGKERELVAAIRLRGGSTYYADSVKGRFTISRDNAKNTVYLQMNSLKPEDTAVYYCAARYWDRSQAYNYWGQGTQVTVSS”, the “polyreactivity (PSR sort gate)” value was “high polyreactivity”.

As for “QVQLVESGGGLVQAGGSLRLSCAASGRIFRSNAMGWYRQSPGKESELVAAITWRGRTYYADSVKGRFTISRDNAKNTVYLQMNSLKPEDTAVYYCNAYVRYGYDYWGHGTQVTVSS”, the “polyreactivity (PSR sort gate)” value is on record as “high polyreactivity”.

In the case of “QVQLVESGGGLVQAGGSLRLSCAASGNIFDGNSMGWYRQAPGKERELVAAITGRGGGTYYADSVKGRFTISRDNAKNTVYLQMNSLKPEDTAVYYCAAPWVVRRTAYDYWGQGTQVTVSS”, the “polyreactivity (PSR sort gate)” value was “high polyreactivity”. Consider “QVQLVESGGGLVQAGGSLRLSCAASGRIFRYYTMGWYRQAPGKERELVAAISGRGGRTYYADSVKGRFTISRDNAKNTVYLQMNSLKPEDTAVYYCNAYDHPIYRLDYWGQGTQVTVSS”, for which the “polyreactivity (PSR sort gate)” value is “high polyreactivity”. For “QVQLVESGGGLVQAGGSLRLSCAASGLIFRTYTMGWYRQAPGKERELVATITRRGGTTYYADSVKGRFTISRDNAKNTVYLQMNSLKPEDTAVYYCAKSPYYTWKYDYWGQGTQVTVSS” the value was “high polyreactivity”; for “QVQLVESGGGLVQAGGSLRLSCAASGLIFFYYAMGWYRQAPGKERELVATINWNGGSTYYADSVKGRFTISRDNAKNTVYLQMNSLKPEDTAVYYCAADAPAGGDSDNDYWGQGTQVTVSS”, “high polyreactivity”; for “QVQLVESGGGLVQAGGSLRLSCAASGRTFRIYAMGWYRQAPGKERELVAAINSGGTTNYADSVKGRFTISRDNAKNTVYLQMISLKPEDTAVYYCAVRYSKTLSHFSYDYWGQGTQLTVSS”, “low polyreactivity”. Take “QVQLVESGGGIFQEGGSLRLSCAASGLIFRSYDMGWYRQAPGKERELVAAITDLFWSTYYADSVKGRFTISRDNAKNTVYLQMYSLKPEDTAVYYCARDDWVYTNVEMDYWGQVTQVTVSS”: the “polyreactivity (PSR sort gate)” value was “high polyreactivity”. Consider “QVQLVESGGGLVQAGGSLRLSCAASGSTFSGNAMGWYRQAPGKERELVAGIRQSGDSTYYADSVKGRFTISRDNAKNTVYLQMNSLKPEDTAVYDCNARAFPFGTGVQGFGFGYWGQGTQVTVSS”, for which the “polyreactivity (PSR sort gate)” value is “low polyreactivity”. Regarding “QVQLVESGGGLVQAGGSLRLSCAASGSTFGGYTMGWYRQAPGKERELVAAITSRGGTTYYADSVKGRFTISRDNAKNTVYLQMNSLKPEDTAVYYCNRVSRYFYGFYWGQGTQVTVSS”, the “polyreactivity (PSR sort gate)” value was “high polyreactivity”. With “QVQLVESGGGLVQAGGSLRLSCAASGITFGANTMGWYRQAPGKERELVAAITISGGITHYADSVKGRFTISRDNAKNTVYLQMNSLKPEDTAVYYCAAGAYWRLYPYRQRNGGRMYYWGQGTQVTVSS”, the “polyreactivity (PSR sort gate)” value is “low polyreactivity”.

On to “QVQLVESGGGLVQAGGSLRLSCAASGRIFGNNAMGWYRQAPGKERELVATITRRGGSTYYADSVKGRFTISRDNAKNTVYLQMNSLKPEDTAVYYCAADRWPYWVAFYSWGQGTQVTVSS”, for which the “polyreactivity (PSR sort gate)” value is reported as “high polyreactivity”. For “QVHLVESGRGLVQAGGSLRLSCAASGSTFGWNTMGWYRQAPAKERELVAAISWSGDRTYYADSVKGRFTISRDNAKNTVYLQMNRLKPEDTAVYYCARQRYYGYYYWGQGTQVTVSS” the value was “high polyreactivity”; for “QVQLVESGGGLVQAGGSLRLSTAASGIIFWYNAMGWYRQAPGKERELVAAISTGGSTNYADSVKGRFTISRDNAKNTVYLQMNSLKPEDTAVYYCAADWHRSYGAYDYWGQGTQVNVSS”, “low polyreactivity”; for “QVQLVESGGGLVQAGGSLRLSCAASGYTFNYYAMGWYRQAPGKERELVAAISASSDSTYYADSVKGRFTISRDNAKNTVYLQMNSLNPEDTAVYYCAAVSGRYRIYRYDYWGQGTQVTVSS”, “low polyreactivity”. With “QLQLVESGGGLVQAGGSLRLSCAASGSTFREYAMGWYRQAPGKERELVAAISSGDSTNYADSVKGRFTISRDNAKNTVYLQMNSLKPEDTSVYYCAADAQGAAAVQNDYWGQGTQVTVSS”, the “polyreactivity (PSR sort gate)” value is given as “low polyreactivity”. With “QVQLHESGGGLCRRAAASSGAASGTISFLYYMGWYRQAPGQEREFVAGINNGTTTNYADSVKGRFTNSRDNAKNTVYLQMNSLKPEDTAVYYCAVRKPYKATTASGFEYWGQGTQVTVSS”, the “polyreactivity (PSR sort gate)” value is listed as “high polyreactivity”. As for “QVQLVESGGGLVQARGSLRLSCAASGRTISYNVMGWYRQAPGKERELVAAITWTGGSTYYADSVKGRFTISRDNAKNTVYLLMNSLKPEDTAVYYCNAAKPYAYWVPNDYWGQGTQVTVSS”, the “polyreactivity (PSR sort gate)” value is “low polyreactivity”. As to “QVQLVVSGGGLVQAGGSLRLRCAASGRTFVRYAMGWSRQAPGKERELVARITTRGTSTYYADSVKGRFTISRDNAKNTVYLLLNSLKPEDTAVYYCNKVRTFRDKSRYDYWGQGTQVTVSS”, the “polyreactivity (PSR sort gate)” value is given as “low polyreactivity”.

Regarding “QVQLQESGGVQAGGSLRLSCAESGYISRSDVMGWYRQAPGKERELVATINNGTITYYADSVKGRFTISRDNAKNTVYLQMNSLKPEDTAVHYCAVVQSDTDSLYYWGQGTQVTVSS”, the “polyreactivity (PSR sort gate)” value is on record as “low polyreactivity”. With “QVQRVDSGGGLVQAGGSLRVSCAASGFIFVANAMGGDREAPGKERELVADINRGSTYYADSVKGRFTISRDNAKNTVYLQMNSLKPEDTAVYYCAARHWRRSGIYYYWGQGTQVTVSS”, the “polyreactivity (PSR sort gate)” value is reported as “high polyreactivity”. For “QVKLEESAGGLVQSGGSLRISCAASGSTLVSNAMGWYRQAPGQERELVADNSLSGGSTYYADSVKGRFTISRDYAKNTVYLQMNSLKPEDTEVYYCARVAPSSGVRWYYYWGQGTQVTVSS” the value was “high polyreactivity”; for “QVQLVESGGGLVQAGGSLRLSCAASGSIFFPYAMGWSRQAPGKERELVAAITYGGGSTYYADSVKGRFTISRDNAKNTVYLQMNSLIPEDTAVYYCAAAVSYWRHGYQLSYDYWGQGTQVTVSS”, “high polyreactivity”; for “QVQLVESGGGLVQAGGSLRLSCAASGRTFGVYAMGWYRQAPGKERELVATIRTTGSTNYADSVKGRFTISRDNAKNTVYLQMNSLKTEDTAVYYCGARQRQSKYYPYTTFTYDYWGQGTQVTVSS”, “high polyreactivity”. Under “QVQLVESGGGLVQAGGSLRLSCAASGSIFVSYAMGWYRQAPGKERELVAAITSAGTTYYADSVKGRFTISRDNAKNTVYLQMNSLKQEDTAVYYCNTDASFKRTRVSPETEYGYWGQGTQVTVSS” stands “low polyreactivity”. In the case of “QVQLVESGGGLVQAGGSLRLSCAASGRIFGDNAMGWYRQAPGKEREFVATINGSGGSTYYADSVKGRFTISRDNAKNTVYLQMNSLKPEDTAVYYCFVQQNYGYDYWGQGTQVTVSS”, the “polyreactivity (PSR sort gate)” value is “low polyreactivity”. Consider “QVQLVESGGGLVQAGGSLRLSCAASGSTFRKYGMGWYRQAPGKERELVARITSSTGTTYYADSVKGRFTISRDNAKNTVYLQMNSLKPEDTAVNYCNARVRYREWGLYYYWGQGTQVTVSS”, for which the “polyreactivity (PSR sort gate)” value was “high polyreactivity”. Consider “QDQLVDSGGGIVQAGGILSLSCAASGRNIIYNAMGWYRQAPGKERELVAAINRSGVSTHYADSVKGRFTISRDNAKNTVYLQMTSLKPEDTAVYYCASTVYGARSYDYWGQGTQVTLSS”, for which the “polyreactivity (PSR sort gate)” value was “low polyreactivity”. For the sequence “QVQLVESGGGLVQAGGSLRLSCAASGRTFPPTAMGGYRLAPGKEWELVAAISPSGASTYYADSVKGRFTISRDNAKNTVYLQMNSLKPEDTAVYYCAARRFIASPRYKYDYWGQGTQVTVSS”, the “polyreactivity (PSR sort gate)” value is listed as “high polyreactivity”. As to “QVQLVESGGGLVQAGGSLRLSCASSGSTFVSYAMGWYRQAPGKERELVAGISWSGTRTYYADSVKGRFTISRDNAKNTVYLQMNSLKPEDTAVYYCAALDSSYNWYGYWGQGTQVTVSS”, the “polyreactivity (PSR sort gate)” value is reported as “high polyreactivity”. Consider “QVQLVESGGGLVQAGGSLRLSCAASGLTFGSYAMGWYRQAPGKERELVAAITWSGGSTYYADSVKGRFTISRDNAKNTVYLQMNSLKPEDTAVYYCAVYSTEYKLLWGGIAYDYWGQGTQVTVSS”, for which the “polyreactivity (PSR sort gate)” value was “low polyreactivity”.

“QVQLVESGGGLVQAGGSLRLSCAASGIIFGSYAMGWYRQAPGKERELVAAISRGTSTYYAVSVKGRFTISRDNAKNTVYLQMNSLKPEDSAVYYCAATRQQYGPHSRFVYVNYYYCGQGTQVTVSS”: the “polyreactivity (PSR sort gate)” value is given as “low polyreactivity”.

(Values after the nanobody polyreactivity screen of Harvey et al. (2022).)
